Assay results as given in publication PMC10686484, “Cas9 is mostly orthogonal to human systems of DNA break sensing and repair”.

How the values were obtained:
Cas9 = Cas9 (Streptococcus pyogenes, UniProt Q99ZW2 1-1368); assay: EMSA; preformed 1 complex with sgRNA, no Mg2+; reported as apparent Kd (EC50); EMSA: 50 mM Tris-HCl pH 7.5, 100 mM NaCl, 1 mM DTT, 0.1 mg/ml BSA (oligo dsDNA only), 10 mM MgCl2 if indicated (always for plasmid), 4 C, 30 min; 10 nM dsDNA or 10 ng/ul plasmid; conditions: protein: recombinant; label: 5'-32P on DNA2 (target strand); guide + blunt 35 bp duplex
Sequence of Cas9 (Q99ZW2 whole entry): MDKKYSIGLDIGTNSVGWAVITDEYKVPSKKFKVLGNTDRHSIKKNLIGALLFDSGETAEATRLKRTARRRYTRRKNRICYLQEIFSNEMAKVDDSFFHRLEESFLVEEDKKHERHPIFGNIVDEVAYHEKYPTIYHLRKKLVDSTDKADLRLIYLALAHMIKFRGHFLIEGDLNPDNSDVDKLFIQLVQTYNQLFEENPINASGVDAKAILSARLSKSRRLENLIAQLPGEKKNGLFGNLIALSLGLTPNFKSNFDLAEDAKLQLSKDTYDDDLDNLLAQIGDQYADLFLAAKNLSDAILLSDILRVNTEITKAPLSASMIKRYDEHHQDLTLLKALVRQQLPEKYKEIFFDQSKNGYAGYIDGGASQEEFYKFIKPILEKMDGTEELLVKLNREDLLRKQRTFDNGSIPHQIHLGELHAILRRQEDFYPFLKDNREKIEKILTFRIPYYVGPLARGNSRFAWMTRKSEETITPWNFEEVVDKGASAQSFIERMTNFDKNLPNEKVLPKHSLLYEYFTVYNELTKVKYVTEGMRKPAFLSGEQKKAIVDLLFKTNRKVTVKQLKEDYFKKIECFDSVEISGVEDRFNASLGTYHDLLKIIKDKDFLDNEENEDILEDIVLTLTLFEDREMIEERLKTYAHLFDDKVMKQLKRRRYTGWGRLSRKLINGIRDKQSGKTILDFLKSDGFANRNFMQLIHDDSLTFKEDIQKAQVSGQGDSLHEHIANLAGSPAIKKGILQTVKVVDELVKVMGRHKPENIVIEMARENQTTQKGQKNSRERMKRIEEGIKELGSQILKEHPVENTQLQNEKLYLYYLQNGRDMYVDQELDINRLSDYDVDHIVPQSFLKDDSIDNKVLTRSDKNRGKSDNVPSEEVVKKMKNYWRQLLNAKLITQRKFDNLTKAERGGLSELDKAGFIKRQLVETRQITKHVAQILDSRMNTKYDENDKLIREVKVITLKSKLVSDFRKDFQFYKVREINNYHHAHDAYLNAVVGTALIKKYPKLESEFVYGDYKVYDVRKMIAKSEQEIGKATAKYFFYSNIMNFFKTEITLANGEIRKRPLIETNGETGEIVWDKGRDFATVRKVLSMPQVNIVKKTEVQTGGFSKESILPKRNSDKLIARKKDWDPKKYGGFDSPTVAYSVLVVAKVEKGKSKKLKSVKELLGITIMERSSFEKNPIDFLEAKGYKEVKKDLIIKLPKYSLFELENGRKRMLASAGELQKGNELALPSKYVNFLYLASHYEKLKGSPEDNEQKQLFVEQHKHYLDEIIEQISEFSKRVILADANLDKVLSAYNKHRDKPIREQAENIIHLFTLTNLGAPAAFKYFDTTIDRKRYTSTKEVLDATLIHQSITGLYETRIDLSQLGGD

Ku antigen (Ku70/80) = Ku antigen (Ku70/80) (human, UniProt P12956;P13010 2-609;2-732); assay: EMSA; EMSA: 50 mM Tris-HCl pH 7.5, 100 mM NaCl, 1 mM DTT, 0.1 mg/ml BSA (oligo dsDNA only), 10 mM MgCl2 if indicated (always for plasmid), 4 C, 30 min; 10 nM dsDNA or 10 ng/ul plasmid; conditions: protein: native; copies: 1;1; label: 5'-32P on DNA2 (target strand); blunt 35 bp
RPA [1] = target: T1, RPA (human, UniProt P27694;P15927;P35244 1-616;1-270;1-121); assay: EMSA; no Mg2+; reported as Kd; EMSA: 50 mM Tris-HCl pH 7.5, 100 mM NaCl, 1 mM DTT, 0.1 mg/ml BSA (oligo dsDNA only), 10 mM MgCl2 if indicated (always for plasmid), 4 C, 30 min; 10 nM dsDNA or 10 ng/ul plasmid; conditions: protein: recombinant; copies: 1;1;1; label: 5'-32P on DNA2 (target strand); blunt 35 bp
T1 sequence (P27694 whole entry, chain 1 of 3): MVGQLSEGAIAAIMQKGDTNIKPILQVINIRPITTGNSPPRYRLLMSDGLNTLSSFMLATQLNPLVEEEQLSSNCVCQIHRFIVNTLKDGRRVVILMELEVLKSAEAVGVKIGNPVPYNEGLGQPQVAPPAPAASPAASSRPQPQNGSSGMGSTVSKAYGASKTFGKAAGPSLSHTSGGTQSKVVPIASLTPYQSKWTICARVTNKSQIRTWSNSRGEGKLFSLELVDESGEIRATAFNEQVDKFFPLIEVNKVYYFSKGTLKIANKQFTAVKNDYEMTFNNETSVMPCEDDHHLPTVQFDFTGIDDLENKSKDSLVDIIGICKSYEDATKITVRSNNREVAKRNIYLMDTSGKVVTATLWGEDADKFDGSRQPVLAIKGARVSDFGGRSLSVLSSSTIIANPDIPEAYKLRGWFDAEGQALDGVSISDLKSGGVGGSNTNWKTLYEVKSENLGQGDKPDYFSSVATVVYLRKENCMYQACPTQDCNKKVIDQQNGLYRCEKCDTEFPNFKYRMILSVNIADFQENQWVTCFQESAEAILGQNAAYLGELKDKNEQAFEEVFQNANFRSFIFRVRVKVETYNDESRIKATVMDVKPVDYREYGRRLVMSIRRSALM
T1 sequence (P15927 whole entry, chain 2 of 3): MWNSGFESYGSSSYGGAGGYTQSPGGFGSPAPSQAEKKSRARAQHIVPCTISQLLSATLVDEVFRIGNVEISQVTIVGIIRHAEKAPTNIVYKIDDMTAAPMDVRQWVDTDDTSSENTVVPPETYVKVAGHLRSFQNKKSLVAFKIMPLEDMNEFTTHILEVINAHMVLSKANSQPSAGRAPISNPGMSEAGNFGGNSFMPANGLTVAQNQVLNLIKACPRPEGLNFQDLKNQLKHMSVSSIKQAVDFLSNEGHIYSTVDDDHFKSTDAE
T1 sequence (P35244 whole entry, chain 3 of 3): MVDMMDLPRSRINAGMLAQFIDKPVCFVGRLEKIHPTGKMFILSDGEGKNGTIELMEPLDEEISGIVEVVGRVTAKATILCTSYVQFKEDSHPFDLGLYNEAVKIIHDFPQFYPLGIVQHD

RPA [2] = target: T1, RPA; assay: EMSA; 10 mM Mg2+; reported as Kd; EMSA: 50 mM Tris-HCl pH 7.5, 100 mM NaCl, 1 mM DTT, 0.1 mg/ml BSA (oligo dsDNA only), 10 mM MgCl2 if indicated (always for plasmid), 4 C, 30 min; 10 nM dsDNA or 10 ng/ul plasmid; conditions: protein: recombinant; copies: 1;1;1; label: 5'-32P on DNA2 (target strand); blunt 35 bp
YB1 (1-219) = YB1 (1-219) (human, UniProt P67809 1-219); assay: EMSA; 10 mM Mg2+; several complexes; EMSA: 50 mM Tris-HCl pH 7.5, 100 mM NaCl, 1 mM DTT, 0.1 mg/ml BSA (oligo dsDNA only), 10 mM MgCl2 if indicated (always for plasmid), 4 C, 30 min; 10 nM dsDNA or 10 ng/ul plasmid; conditions: protein: recombinant; label: 5'-32P on DNA2 (target strand); blunt 35 bp
Sequence of YB1 (1-219) (P67809 1-219): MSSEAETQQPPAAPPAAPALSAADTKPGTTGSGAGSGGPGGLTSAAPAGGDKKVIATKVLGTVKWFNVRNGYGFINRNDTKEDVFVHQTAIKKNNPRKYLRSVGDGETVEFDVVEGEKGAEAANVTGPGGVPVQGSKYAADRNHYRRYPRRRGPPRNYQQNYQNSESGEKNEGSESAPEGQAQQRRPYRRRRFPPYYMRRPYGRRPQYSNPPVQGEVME

PARP2 = PARP2 (murine, UniProt O88554 1-559); assay: EMSA; no NAD+, no Mg2+; apparent Kd (EC50), from loss of free DNA; EMSA: 50 mM Tris-HCl pH 7.5, 100 mM NaCl, 1 mM DTT, 0.1 mg/ml BSA (oligo dsDNA only), 10 mM MgCl2 if indicated (always for plasmid), 4 C, 30 min; 10 nM dsDNA or 10 ng/ul plasmid; conditions: protein: recombinant; label: 5'-32P on DNA2 (target strand); blunt 35 bp
Sequence of PARP2 (O88554 whole entry): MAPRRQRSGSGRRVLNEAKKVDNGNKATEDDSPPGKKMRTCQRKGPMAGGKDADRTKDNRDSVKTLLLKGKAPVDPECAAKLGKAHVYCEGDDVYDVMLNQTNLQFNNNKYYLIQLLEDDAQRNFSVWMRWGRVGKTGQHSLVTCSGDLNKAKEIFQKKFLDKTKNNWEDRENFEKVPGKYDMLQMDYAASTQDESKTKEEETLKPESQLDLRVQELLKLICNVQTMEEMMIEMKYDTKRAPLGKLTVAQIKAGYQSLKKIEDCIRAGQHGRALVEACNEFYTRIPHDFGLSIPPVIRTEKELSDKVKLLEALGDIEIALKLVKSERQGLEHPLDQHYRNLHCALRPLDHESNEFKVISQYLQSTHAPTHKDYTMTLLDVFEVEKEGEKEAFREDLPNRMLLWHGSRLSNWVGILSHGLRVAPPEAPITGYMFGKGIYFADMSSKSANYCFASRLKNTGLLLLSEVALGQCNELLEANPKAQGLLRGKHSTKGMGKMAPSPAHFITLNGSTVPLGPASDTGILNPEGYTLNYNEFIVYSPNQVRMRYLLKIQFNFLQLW

PARP1 = PARP1 (human, UniProt P09874 1-1014); assay: as above; conditions: protein: recombinant; label: 5'-32P on DNA2 (target strand); blunt 35 bp
Sequence of PARP1 (P09874 whole entry): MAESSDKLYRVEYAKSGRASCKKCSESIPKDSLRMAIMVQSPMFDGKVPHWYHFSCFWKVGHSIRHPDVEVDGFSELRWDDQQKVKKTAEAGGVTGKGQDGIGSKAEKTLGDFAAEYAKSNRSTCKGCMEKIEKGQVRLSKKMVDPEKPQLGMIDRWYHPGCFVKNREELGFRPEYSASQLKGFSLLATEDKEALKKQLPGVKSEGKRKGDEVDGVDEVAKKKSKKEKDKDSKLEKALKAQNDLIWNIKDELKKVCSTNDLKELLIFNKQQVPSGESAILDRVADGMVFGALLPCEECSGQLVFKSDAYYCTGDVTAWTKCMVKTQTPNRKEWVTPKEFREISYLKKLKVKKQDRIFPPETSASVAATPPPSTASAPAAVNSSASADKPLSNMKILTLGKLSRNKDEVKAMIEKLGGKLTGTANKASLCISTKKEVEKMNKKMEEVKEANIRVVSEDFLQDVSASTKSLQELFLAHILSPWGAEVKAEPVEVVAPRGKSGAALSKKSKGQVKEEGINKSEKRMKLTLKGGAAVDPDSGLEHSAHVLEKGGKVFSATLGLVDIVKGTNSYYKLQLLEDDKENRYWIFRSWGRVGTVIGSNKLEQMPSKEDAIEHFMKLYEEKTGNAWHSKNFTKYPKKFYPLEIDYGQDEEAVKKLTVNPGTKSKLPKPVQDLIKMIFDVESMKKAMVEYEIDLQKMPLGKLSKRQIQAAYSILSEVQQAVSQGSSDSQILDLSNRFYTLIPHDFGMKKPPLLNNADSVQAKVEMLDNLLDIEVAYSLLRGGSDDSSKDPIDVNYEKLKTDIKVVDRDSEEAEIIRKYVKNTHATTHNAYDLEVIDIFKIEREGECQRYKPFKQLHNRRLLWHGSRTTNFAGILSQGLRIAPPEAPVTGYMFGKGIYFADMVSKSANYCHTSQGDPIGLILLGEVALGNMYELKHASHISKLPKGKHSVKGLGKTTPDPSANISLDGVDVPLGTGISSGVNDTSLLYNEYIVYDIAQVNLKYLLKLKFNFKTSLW

Binder	apparent K (half saturation) (Cas9) [nM]	binding result (Ku antigen (Ku70/80))	apparent K (half saturation) (RPA [1]) [nM]	apparent K (half saturation) (RPA [2]) [nM]	binding result (YB1 (1-219))	apparent K (half saturation) (PARP2) [nM]	apparent K (half saturation) (PARP1) [nM]
sgRNA (pLK1) + dsDNA1/2* (mixed) RNA: GGAUAACUCAAUUUGUAAAAAAGUUUUAGAGCUAGAAAUAGCAAGUUAAAAUAAGGCUAGUCCGUUAUCAACUUGAAAAAGUGGCACCGAGUCGGUGCUUUU DNA 1: CTGATAACTCAATTTGTAAAAAATGGTACTGAGCA DNA 2: TGCTCAGTACCATTTTTTACAAATTGAGTTATCAG	7.7 ± 0.4	–	–	–	–	–	–
dsDNA1/2* (dsDNA) DNA 1: CTGATAACTCAATTTGTAAAAAATGGTACTGAGCA DNA 2: TGCTCAGTACCATTTTTTACAAATTGAGTTATCAG	–	binds	90 ± 20	125 ± 40	binds	200 ± 16	53 ± 5
